Consider three molecules from patent US20260217846A1 (published 2026).

Sequences and labels used below:
B1: Clone 138 4-1BB antibody (IgG2b) (antibody, V domains shown)
VH: VQLQESGGGLVKPGGSLKLSCAASGFTFSDYGMHWVRQAPEKGLEWVAYISSGSNSIYYADTVTGRFTISRDNAKNTLFLQMTSLRSEDTAMYYCASNNGYFYFDYWGQGTTLTVSS
VL: IVITQSPAILSASPGEKVTMTCRASSSVSYMHWYQQKPGSSPKPWIYATSNLASGVPARFSGSGSGTSYSLTVSRVEAEDAATYYCQQWSSDPFTFGSGTKLEIK
B2: Clone 49A 4-1BB antibody (IgG1) (antibody, V domains shown)
VH: VKLQQSGPELVKPGASVKISCKASGYTFTDYYMNWVKESHGKSLEWIGDINPNNGGSTYYNQKFKGKATLTVEKSSSTAFMELRSLTSEDSAVYYCARSLYGSTYYFDYWGQGTPLTVSS
VL: DIVLTQSPASLAVSLGQRATISCKASQSVDYDGDSYMNWYQQKPGQPPKLLIYAASNLESGIPARFSGSGSGTDFTLNIHPVEEEDAGTYYCQQSNDDPWTFGGGTKLEIK
B3: Clone 54 4-1BB antibody (IgG2a) (antibody, V domains shown)
VH: EFQLQQSGPELVKPGASVKISCKASGYSFTDYNMNWVKQSNGKSLEWIGVINPNYGTTSYNQKFKGKATFTVDQSSSTAYMQLNSLTSEDSAVYYCARSPVEDYFDYWGQGTTLTVSS
VL: ENVLTQSPAIMSASPGEKVTMTCRARSSVSSSYLHWYQQKSGASPKLWIYSTSNLASGVPARFSGSGSGTSYSLTISSVEAEDAATYYCQQYSGYPLITFGAGTKLELKR

For this test, the target named is recombinant human 4-1BB (human, UniProt Q07011 24-186). Put plainly: ELISA. (In general: An ELISA detects its analyte on a solid surface through an enzyme-linked reagent.)
Chain of recombinant human 4-1BB (Q07011 24-186): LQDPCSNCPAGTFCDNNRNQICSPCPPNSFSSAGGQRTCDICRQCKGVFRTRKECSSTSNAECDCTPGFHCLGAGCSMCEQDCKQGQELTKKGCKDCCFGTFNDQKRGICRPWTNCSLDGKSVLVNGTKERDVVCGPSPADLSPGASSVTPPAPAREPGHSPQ
As to B1, the EC50 turned out to be 4.71 ng/mL.

For the molecule B2, the EC50 came to 1.32 ng/mL.

Consider B3, for which the EC50 turned out to be 16 ng/mL.

Broadly, the EC50 is the concentration at which the effect is half-maximal.
